Laboratory results published in patent US6870041B1, “MurE protein and gene of pseudomonas aeruginosa” (priority 1999, dated 2005).

Experiments:
E. coli MurE = target: T1, E. coli MurE (Escherichia coli, UniProt P22188); assay: ATP-dependent MurE activity, pyruvate kinase/lactate dehydrogenase coupled enzyme assay (ADP formation); format: biochemical; settings: recombinant MurE from E. coli; 25° C., pH 8.0; ADP formed per min per mg
T1 sequence (P22188 whole entry, looked up): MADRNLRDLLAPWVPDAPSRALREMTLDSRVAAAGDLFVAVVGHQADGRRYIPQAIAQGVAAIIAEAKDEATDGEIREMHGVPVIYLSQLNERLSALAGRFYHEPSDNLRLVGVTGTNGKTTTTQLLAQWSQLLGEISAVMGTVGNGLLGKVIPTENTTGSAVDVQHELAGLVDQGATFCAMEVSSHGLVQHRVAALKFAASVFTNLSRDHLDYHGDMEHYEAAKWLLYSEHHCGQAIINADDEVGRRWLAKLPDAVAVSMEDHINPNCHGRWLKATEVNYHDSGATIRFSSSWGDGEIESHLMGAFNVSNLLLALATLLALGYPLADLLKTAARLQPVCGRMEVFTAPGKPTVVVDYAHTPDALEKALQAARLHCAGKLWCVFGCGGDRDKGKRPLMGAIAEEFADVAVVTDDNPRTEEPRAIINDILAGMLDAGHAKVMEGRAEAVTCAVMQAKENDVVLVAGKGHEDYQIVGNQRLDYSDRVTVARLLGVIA
Experimental: (§1) The ATP-dependent MurE activity was assayed by monitoring the formation of product ADP using the pyruvate kinase and lactate dehydrogenase coupled enzyme assay. The reaction was monitored spectrophotometrically.
(§2) Typically, the assay contained 100 mM BIS-TRIS-propane, pH 8.0, 200 μM NADH, 1 mM ATP, 20 mM PEP, 5 mM MgCl2, 1 mM DTT, 350 μM UDP-N-acetyl-muramyl-L-alanine-D-Glutamine, 1 mM m-Dap, 33 units/ml of pyruvate kinase and 1660 units/ml of lactate dehydrogenase in a final volume of 200 or 400 μl. The mixture was incubated at 25° C. for 5 min and the reaction initiated by the addition of 1-10 μg of MurE. These conditions are one example of an assay useful for evaluating the activity of MurE. Other assays can be used, or amounts of buffers, substrate and enzyme can be changed, as desired, to alter the rate of production of ADP.
(§3) ADP formation was monitored by the decrease in absorbance at 340 nm as a function of time using a MOLECULAR DEVICES SPECTRAMAXPLUS™ microtiterplate spectrophotomer (for 200 μl assays) or a HEWLETT-PACKARD HP8452A spectrophotometer equipped with a circulating water bath (for 400 μl assays). Rates were calculated from the linear portions of the progress curves using the extinction coefficient for NADH, e=6220 cm^−1 M-1. One unit of MurE activity is equal to 1 μmol of ADP formed per min at 25° C.

P. aeruginosa MurE = target: T2, P. aeruginosa MurE (Pseudomonas aeruginosa, UniProt Q59650); assay: as above; format: biochemical; settings: recombinant MurE from P. aeruginosa; 25° C., pH 8.0; ADP formed per min per mg
T2 construct: 6xHis (pET-15b) (N); made in house; host or cells: E. coli BL21(DE3)/pLysS, plasmid pPaeMurE (pET-15b)
T2 sequence (Q59650 whole entry, looked up): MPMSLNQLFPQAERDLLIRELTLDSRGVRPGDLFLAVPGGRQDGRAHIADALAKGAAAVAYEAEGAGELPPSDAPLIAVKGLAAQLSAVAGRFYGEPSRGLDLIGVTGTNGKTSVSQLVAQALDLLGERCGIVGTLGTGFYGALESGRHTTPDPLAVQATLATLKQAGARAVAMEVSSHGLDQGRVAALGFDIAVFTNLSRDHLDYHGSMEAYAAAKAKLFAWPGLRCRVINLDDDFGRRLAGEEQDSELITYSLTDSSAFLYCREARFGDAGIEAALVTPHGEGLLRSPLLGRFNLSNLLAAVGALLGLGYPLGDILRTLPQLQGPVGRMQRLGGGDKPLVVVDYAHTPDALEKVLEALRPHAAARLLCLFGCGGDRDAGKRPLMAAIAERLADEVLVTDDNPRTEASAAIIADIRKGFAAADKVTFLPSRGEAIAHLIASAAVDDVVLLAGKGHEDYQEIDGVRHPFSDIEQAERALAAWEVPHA
Experimental: as §1, §2, §3

B1: UDP-N-acetylmuramoyl-L-alanyl-D-glutamate:meso-2,6-diaminopimelate ligase (protein, listed as Pseudomonas aeruginosa)
chain: MPMSLSQLFPQAERDLLIRELTLDSHGVRPVDLFLTVPGGHQDGRAHIADALTKGATAVAYEAEGAGELPPSDAPLIAVKGLAAQLSAVAGRFYGEPSRGLDLIGVTGTNGKTSVSQLVAQALDLLGERCGIVGTLGTGFYGALESGRHTTPDPLAVQATLATLKQAGARAVAMEVSSHGLDQGRVAALGFDIAVFTNLSRDHLDYHGSMEAYAAAKAKLFAWPDLRCRVINLDDDFGRRLAGEEQDSELITYSLTDSSAFLYCREARFGDAGIEAALVTPHGEGLLRSPLLGRFNLSNLLAAVGALLGLGYPLGDILRTLPQLQGPVGRMQRLGGGGKPLVVVDYAHTPDALEKVLEALRPHAAARLLCLFGCGGDRDAGKRPLMAAIAERLADEVLVTDDNPRTEASAAIIADIRKGFAAADKVTFLPSRGEAIAHLIASAAVDDVVLLAGKGHEDYQEIDGVRHPFSDIEQAERALAAWEVPHA
modifications: His tag
Specific activities of recombinant MurE, E. coli (E. coli MurE): 0.68 µmol/min/mg | Specific activities of recombinant MurE, P. aeruginosa (P. aeruginosa MurE): 3.31 µmol/min/mg
